Drawing on patent EP1950297A2, this text covers increase in phosphorylation by ATM immunoprecipitated from gamma-irradiated cells for one substance.

The target of the assay is GST-fusion protein containing amino acids 327-517 of KIAA0175 (human) (UniProt Q14680). Description: cell-based or functional assay.
UniProt Q14680, sequence (Q14680 327-517 S391Q): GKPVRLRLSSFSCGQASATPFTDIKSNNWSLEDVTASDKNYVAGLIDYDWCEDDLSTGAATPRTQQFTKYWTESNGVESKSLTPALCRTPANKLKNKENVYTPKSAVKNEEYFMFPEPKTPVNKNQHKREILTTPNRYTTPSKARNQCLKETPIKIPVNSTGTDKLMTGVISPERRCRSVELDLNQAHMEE

For “Ataxia telangiectasia mutated (ATM), immunoprecipitated from cells (from UniProt Q13315 2-3056) (enzyme)”, the increase in phosphorylation by ATM immunoprecipitated from gamma-irradiated cells fell in the range of 2 to 3 fold.
